Experimental data published in publication PMC3554691, “Systematic Functional Comparative Analysis of Four Single-Stranded DNA-Binding Proteins and Their Affection on Viral RNA Metabolism” (PLoS ONE, 2013).
Each block holds one molecule with its values, some of them ahead of it.

Key:
[1] = target: SSB protein from Sulfolobus Solfataricus P2 (SSOB) (Sulfolobus Solfataricus P2) (UniProt Q97W73); test: native gel or EMSA; 5 µg of ssob on non-denaturing gradient polyacrylamide gel, running buffer and gel at pH 7.4, poles reversed, Coomassie stained; self-association
[2] = target: the molecule itself; test: native gel or EMSA; 5 µg of SSB protein on 3.5–5–12% non-denaturing gradient polyacrylamide gel with NativeMarker, Coomassie stained; self-association
[3] = target: T1, SSB protein from Thermococcus kodakarensis KOD1 (KOD) (Thermococcus kodakarensis KOD1); test: as above; settings: both partners purified
T1 chain: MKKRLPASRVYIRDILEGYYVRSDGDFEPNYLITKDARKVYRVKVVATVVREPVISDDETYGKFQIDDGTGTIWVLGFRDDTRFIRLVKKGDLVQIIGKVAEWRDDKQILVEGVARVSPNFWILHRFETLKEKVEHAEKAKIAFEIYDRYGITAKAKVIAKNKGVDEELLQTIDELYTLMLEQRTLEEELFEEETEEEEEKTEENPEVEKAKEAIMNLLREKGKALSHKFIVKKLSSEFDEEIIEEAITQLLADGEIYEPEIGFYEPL

stoichiometry N [1]: 4
Molecule: SSB protein from Sulfolobus Solfataricus P2 (SSOB) (from UniProt Q97W73 1-148) (natural protein)

B1: SSB protein from Thermus thermophilus HB8 (TTH) (natural protein, UniProt Q5SLP9 1-263, looked up)
chain: MARGLNRVFLIGALATRPDMRYTPAGLAILDLTLAGQDLLLSDNGGEREVSWYHRVRLLGRQAEMWGDLLDQGQLVFVEGRLEYRQWEREGERRSELQIRADFLDPLDDRGKERAEDSRGQPRLRAALNQVFLMGNLTRDPELRYTPQGTAVARLGLAVNERRQGAEERTHFVEVQAWRDLAEWAAELRKGDGLFVIGRLVNDSWTSSSGERRFQTRVEALRLERPTRGPAQAGGSRSREVQTGGVDIDEGLEDFPPEEELPF
notes: printed length 263 residues, monomer 29.8 kDa; also called TTH SSB protein; source: E. coli BL21 (DE3), purified (70°C heat treatment, Ni2+ Sepharose, dialysis); not shown: His6, N-terminal, kept
stoichiometry N [2]: 2

stoichiometry N [3]: 2
B2: SSB protein from Thermococcus kodakarensis KOD1 (KOD) (natural protein)
chain: T1 chain
modifications: N-terminal His tag left out. The locus TK1959 (RPA41, the 41 kDa replication factor A subunit) is inferred from the printed 356 residues and 41.6 kDa; it is not printed in the paper. / N-terminal His
